The values that follow come from patent US20070292490A1.

Test [1] has as its target E. coli produced recombinant human tissue factor rhTF243, purified and lipidated (human) (UniProt P13726). The test can be described thus: cell-based or functional assay.
Test [2] concerns the target lettuce-produced recombinant human tissue factor, full length (263 aa), purified and lipidated (human) (UniProt P13726). The test can be described thus: cell-based or functional assay.

B1: Sunol-cH36 (antibody, from another filing, V domains shown)
VH: EIQLQQSGPELVKPGASVQVSCKTSGYSFTDYNVYWVRQSHGKSLEWIGYIDPYNGITIYDQNFKGKATLTVDKSSTTAFMHLNSLTSDDSAVYFCARDVTTALDFWGQGTTLTVSS
VL: DIQMTQSPASQSASLGESVTITCLASQTIDTWLAWYQQKPGKSPQLLIYAATNLADGVPSRFSGSGSGTKFSFKISSLQAEDFVNYYCQQVYSSPFTFGAGTKLELK
Turning to B1, in test [1], the clot time in prothrombin time (PT) assay, human plasma, 10 nM lipidated rhTF, at antibody concentration of 500 nM is 48 s and the clot time in prothrombin time (PT) assay, human plasma, 10 nM lipidated rhTF, without antibody (0 nM) amounted to 25 s. Also, in test [2], the clot time in prothrombin time (PT) assay, human plasma, 10 nM lipidated rhTF, at antibody concentration of 500 nM is 42 s and the clot time in prothrombin time (PT) assay, human plasma, 10 nM lipidated rhTF, without antibody (0 nM) turned out to be 25 s.
